Data on one substance can be found in PMC10462681.

For experiment [1], the target named is LRP4-HA mutant p.Tyr607Cys (c.1820A > G; LRP4-Mut), expressed in HEK293T cells (human) (UniProt O75096). Description: pull-down; LRP4-HA (wild-type or mutated) from transfected HEK293T cells immobilised on beads with anti-HA antibody, incubated with or without recombinant agrin (1 µg/mL); western blot with anti-agrin antibody; N = 3 blots.
For experiment [2] the target is unchanged.

With “recombinant rat agrin (neural agrin) (from UniProt P25304 1-1959) (ligand)”, in experiment [1], the percent decrease of binding against wild-type LRP4 stood at 80%. The MuSK phosphorylation (anti-4G10 blot of immunoprecipitated MuSK-Flag) induced by agrin (0.4 µg/ml; 1, 3 and 6 h) in HEK293T cells expressing MuSK-Flag and mutant LRP4-HA, against wild-type LRP4-HA in experiment [2] came to 40 % decrease.
